Consider one substance from article PMC6238592.

In the assay the target is human FACT (FAcilitates Chromatin Transcription), full length (human) (UniProt Q9Y5B9). Kind of assay: AUC; SV-AUC, absorbance optics; 1.8 μM FACT incubated with histones at the indicated molar ratios for 10 min at room temperature; 150 mM NaCl, 20 mM Tris pH 8.0, 1 mM TCEP; 20°C.

For “histone H2A–H2B dimer (no label stated) (from UniProt P06897 1-130; P02281 1-126) (complex)”, the stoichiometry N (H2A–H2B per FACT) was found to be 1.
